From US6441158, “Oligomers that bind to ku protein” (Medical College of Georgia Research Institute, Inc.) come the findings set out here.

The target of series [1] is DNA-PK (Ku protein + DNA-PKcs) (Homo sapiens, UniProt P12956;P13010;P78527 P12956:2-609,P13010:2-732,P78527:1-4128). Nature of the series: inhibition; DNA-PK kinase inhibition class A at 16-32 nM RNA. The following applies: tags: none, both purified from HeLa cell nuclear extracts.
The target in series [2] is T1, Ku protein (Ku70/Ku80 heterodimer) (Homo sapiens, UniProt P12956;P13010 P12956:2-609,P13010:2-732). Put plainly: EMSA. The following applies: tags: none, purified from HeLa cell nuclear extracts.
Series [3] deals with T1, Ku protein (Ku70/Ku80 heterodimer). Nature of the series: EMSA; printed as SCI. The following applies: tags: none, purified from HeLa cell nuclear extracts.
Series [4] shares this target. Put plainly: EMSA; 5 mM MgCl2. The following applies: tags: none, purified from HeLa cell nuclear extracts.
For series [5] the target is unchanged. Nature of the series: EMSA; binding comparable to round 6 RNA (about 0.3 nM). The following applies: tags: none, purified from HeLa cell nuclear extracts; label: 5'-32P.
Description: Binding curves were obtained with EMSA followed by a nonlinear least squares fit of the data. […] A twenty-one base pair double-stranded DNA was end-labeled with T4 polynucleotide kinase.

T1 sequence (P12956 2-609, chain 1 of 2): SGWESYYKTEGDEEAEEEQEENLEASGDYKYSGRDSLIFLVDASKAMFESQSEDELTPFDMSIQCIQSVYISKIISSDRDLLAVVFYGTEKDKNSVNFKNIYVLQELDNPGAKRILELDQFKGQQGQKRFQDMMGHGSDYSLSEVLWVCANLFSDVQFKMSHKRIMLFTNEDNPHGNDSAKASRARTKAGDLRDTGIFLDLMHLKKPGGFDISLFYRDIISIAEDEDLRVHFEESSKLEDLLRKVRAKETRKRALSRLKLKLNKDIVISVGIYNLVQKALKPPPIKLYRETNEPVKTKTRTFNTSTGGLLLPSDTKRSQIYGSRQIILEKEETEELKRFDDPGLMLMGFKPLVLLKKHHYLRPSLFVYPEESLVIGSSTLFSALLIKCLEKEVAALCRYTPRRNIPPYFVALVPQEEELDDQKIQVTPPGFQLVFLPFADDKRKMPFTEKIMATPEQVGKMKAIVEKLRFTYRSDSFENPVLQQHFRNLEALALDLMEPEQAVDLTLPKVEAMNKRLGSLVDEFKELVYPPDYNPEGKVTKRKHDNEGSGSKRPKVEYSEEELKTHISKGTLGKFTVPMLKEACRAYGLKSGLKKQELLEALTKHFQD
T1 sequence (P13010 2-732, chain 2 of 2): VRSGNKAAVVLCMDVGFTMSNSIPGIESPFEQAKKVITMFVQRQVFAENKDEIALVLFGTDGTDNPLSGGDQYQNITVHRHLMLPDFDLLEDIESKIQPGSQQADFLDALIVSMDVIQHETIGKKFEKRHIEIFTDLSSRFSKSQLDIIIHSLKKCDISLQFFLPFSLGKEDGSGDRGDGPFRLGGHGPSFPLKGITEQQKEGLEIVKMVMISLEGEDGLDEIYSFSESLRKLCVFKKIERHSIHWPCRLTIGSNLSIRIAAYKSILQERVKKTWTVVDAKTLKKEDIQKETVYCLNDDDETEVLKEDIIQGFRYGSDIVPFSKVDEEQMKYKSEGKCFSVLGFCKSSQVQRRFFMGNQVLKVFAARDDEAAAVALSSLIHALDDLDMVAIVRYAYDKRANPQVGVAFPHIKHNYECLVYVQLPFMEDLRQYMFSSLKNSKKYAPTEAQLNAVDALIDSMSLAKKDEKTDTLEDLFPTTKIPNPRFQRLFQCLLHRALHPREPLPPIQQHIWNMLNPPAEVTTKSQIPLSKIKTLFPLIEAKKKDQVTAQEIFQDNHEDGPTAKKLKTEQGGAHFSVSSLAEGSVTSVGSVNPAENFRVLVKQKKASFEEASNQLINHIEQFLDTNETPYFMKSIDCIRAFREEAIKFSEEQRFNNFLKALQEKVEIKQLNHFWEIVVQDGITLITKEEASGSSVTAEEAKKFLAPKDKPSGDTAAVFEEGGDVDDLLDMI

B1: #1-2 (ssRNA)
RNA: GGGAGGAUAUUUUCUCAGACCGUAACAACACCUUGCUUUCCCAAUACCCUGAAAUACAGUCGGAUUUGCAGCAUCGUGAACUAGGAUC
Take B1: the activity in series [1] was at least 85 % inhibition. In series [2], this molecule came in with a dissociation constant Kd of 1.5 nM.

B2: SC12 (ssRNA)
RNA: GGGAGGAUAUUUUCUCAGACCGUAACUCGCAACAUGACUUCGAAAGUUUAAUCGUUCUUGUCAAUUGCAGCAUCGUGAACUAGGAUC
With B2, the affinity in series [2], expressed as Kd, was 0.5 nM.

B3: SC4 (ssRNA)
RNA: GGGAGGAUAUUUUCUCAGACCGUAACCUAGUCUAAUCGAGGCUUUCCCAGUGACAAUGACCCACUUGCAGCAUCGUGAACUAGGAUC
For the molecule B3, the affinity in series [2], expressed as Kd, was 1.7 nM.

B4: SC11 (ssRNA)
RNA: GGGAGGAUAUUUUCUCAGACCGUAACUUAGUUUCGAUCGAAGCUCAUUGGCCCAGCGUGGAUAACUUGCAGCAUCGUGAACUAGGAUC
As for B4, in series [2], the dissociation constant Kd is above 10 nM.

B5: SC6 (ssRNA)
RNA: GGGAGGAUAUUUUCUCAGACCGUAAGACUCACGAUGGACCAUACGCCUUCCCACUGGUCUUGUUAUUGCAGCAUCGUGAACUAGGAUC
B5 showed a dissociation constant Kd in series [2] of 2 nM.

B6: SC2 (ssRNA)
RNA: GGGAGGAUAUUUUCUCAGACCGUAACACGCUCUACAACAGAUUGCGAAUUAACUUACGCUUCAUAUUGCAGCAUCGUGAACUAGGAUC
Turning to B6, in series [1], the activity was at least 85 % inhibition. In series [2], the Kd came to 0.8 nM.

B7: #1-17 (ssRNA)
RNA: GGGAGGAUAUUUUCUCAGACCGUAAUCCUUAUUUUAUGGCUUUCCCACGCACACAAGCGUCUGCGUUGCAGCAUCGUGAACUAGGAUC
B7 showed a Kd in series [2] of 3.2 nM.

B8: SC3 (ssRNA)
RNA: GGGAGGAUAUUUUCUCAGACCGUAACAUUACCACAGUUCUAGCAUCCCGCAAUGGUAAGUCCGCAUUGCAGCAUCGUGAACUAGGAUC
The molecule B8 registered a Kd in series [2] of 0.8 nM.

B9: SC1 (ssRNA)
RNA: GGGAGGAUAUUUUCUCAGACCGUAAUUGUUCAACCUUGUCUAACAUGAUACCGAUACGGACUACAUUGCAGCAUCGUGAACUAGGAUC
In turn, B9 registered a Kd in series [3] of 1.2 nM. This lies in the single-digit nanomolar range.

B10: #2 (ssRNA)
RNA: GGGAGGAUAUUUUCUCAGACCGUAAGCCUAUGCACGGAGCUUUCCCAGCUACAGAUGAAACCAGCUUGCAGCAUCGUGAACUAGGAUC
With B10, the affinity in series [4], expressed as Kd, was 0.3 nM. Also, the activity in series [1] is at least 85 % inhibition.

B11: #84 (ssRNA)
RNA: GGGAGGAUAUUUUCUCAGACCGUAAAUCCGCGUACCGGGCUCAAAUGUCACUAUAGUAGAAAGCAUUGCAGCAUCGUGAACUAGGAUC
In series [2], B11 returned a dissociation constant Kd of 1.8 nM. This counts as single-digit nanomolar.

B12: #52 (ssRNA)
RNA: GGGAGGAUAUUUUCUCAGACCGUAACUGAUCGUUCAAUGACUAUUCUUUACCUUGAGUAACCGAUUGCAGCAUCGUGAACUAGGAUC
Turning to B12, the dissociation constant (Kd) in series [2] came to 3.2 nM.

B13: #7-3 (ssRNA)
RNA: GGGAGGAUAUUUUCUCAGACCGUAAAGGUCGGCAUACAGAGUUCCGAAUGCGCGUAACUUCGACUUUGCAGCAUCGUGAACUAGGAUC
Turning to B13, the activity in series [1] was at least 85 % inhibition. For the same molecule, the Kd in series [2] was found to be 1.8 nM.

B14: SC13 (ssRNA)
RNA: GGGAGGAUAUUUUCUCAGACCGUAAACCUUUUUAGACGAACCUCAAAGUACAUUUAGUUGAAAACUUGCAGCAUCGUGAACUAGGAUC
In the case of B14, the Kd in series [2] amounted to 0.8 nM.

B15: SC5 (ssRNA)
RNA: GGGAGGAUAUUUUCUCAGACCGUAACUUGAACAUGAUAGGCUUACCCAUAGACAGAUUGACCCUUUUGCAGCAUCGUGAACUAGGAUC
As to B15, the activity in series [1] is at least 85 % inhibition. The affinity in series [2], expressed as Kd, was 2 nM.

B16: #85 (ssRNA)
RNA: GGGAGGAUAUUUUCUCAGACCGUAACAAGUAUCACGCACUUUCCCAUUCACUGUUAGAGACUGAUUGCAGCAUCGUGAACUAGGAUC
In turn, B16 had an equilibrium dissociation constant (Kd) in series [2] of 0.7 nM. In other words, the sub-nanomolar range.

B17: SC8 (ssRNA)
RNA: GGGAGGAUAUUUUCUCAGACCGUAAGUCCUUCACUAAUGCUUACCAGACACACUAAGAACGUCACUUGCAGCAUCGUGAACUAGGAUC
As for B17, in series [1], the activity was at least 85 % inhibition. The same molecule had a Kd in series [2] of 0.6 nM.

B18: #42 (ssRNA)
RNA: GGGAGGAUAUUUUCUCAGACCGUAACAUCCUGGUACUCACUUCGACAUCGUACGUUCAAUCAUACUUGCAGCAUCGUGAACUAGGAUC
On to B18, for which the affinity in series [2], expressed as Kd, was 4.5 nM.

B19: 21 bp double-stranded DNA (dsDNA)
DNA 1: CTCAGGCGTTGACGACAACCC
DNA 2: GGGTTGTCGTCAACGCCTGAG
Take B19: the binding result in series [5] was “binds”.

B20: SC9 (ssRNA)
RNA: GGGAGGAUAUUUUCUCAGACCGUAAUGCCUUUAGCUGCGACAAUGAACAGCAUGACCUCACUACUUGCAGCAUCGUGAACUAGGAUC
Regarding B20, binding in series [2] was characterised by a dissociation constant (Kd) of 0.6 nM. That is a sub-nanomolar value.
